Measurements taken from patent publication EP4714976A1.

B1: 3A8 scFv-Fc (Fc fusion)
chain: QVQLQQSGAELVKPGASVKMSCKASGYTFTIYNIHWVRQTPGQGLEWIGLIYPDNGDTSYNQKFKAKATLTADKSSSTAYMQLSSLTSEDSAVYYCARGGFDYWGQGTSLTVSSGGGGSGGGGSGGGGSDIVMTQSQKFMSTSVGDRVSVTCKASQNVGTNVAWYQQKPGQSPKALIYSASYRYSGVPDRFTGSGSGTDFTLTISNVQAEDLADYFCQQHYSTPYTFGGGTKLEMKESKYGPPCPPCPAPEAAGGPSVFLFPPKPKDTLMISRTPEVTCVVVDVSQEDPEVQFNWYVDGVEVHNAKTKPREEQFNSTYRVVSVLTVLHQDWLNGKEYKCKVSNKGLPSSIEKTISKAKGQPREPQVYTLPPSQEEMTKNQVSLTCLVKGFYPSDIAVEWESNGQPENNYKTTPPVLDSDGSFFLYSKLTVDKSRWQEGNVFSCSVMHEALHNHYTQKSLSLSLG
B2: 1D7 scFv displayed on phage (scFv)
scFv: QIQLQQSGAELVKPGASVKMSCKASGYTFRYYNMHWVKRTPGQGLEWIGLIYPDNGDTSYNQKFKGKATLTADTSSSTAYMQLSSLTSEDSAVYYCARGGLDYWGQGTSLTVSSGGGGSGGGGSGGGGSDIQMTQSPSSMSASLGDRITITCQATQDIVKNLNWYQQKPGKPPSFLIYYATELAEGVPSRFSGSGSGSDYSLTISNLESEDFADYYCLQFYEFPLTFGAGTKLELK
B3: 3E3 scFv displayed on phage (scFv)
scFv: QVQLQQPGAVLVKPGASVRMSCKASGYTFPYYNVHWVKRTPGQGLEWIGLIYPDNGDTSYNQKFTGKATLTADTSSSTAYMQLSSLTSEDSAVYYCARGGLDYWGQGTTLTVSAGGGGSGGGGSGGGGSDVQITQSPASLSASVGETVTITCGASENIYGALNWYQRKQGKSPQLLIYGATNLADGMSSRFSGSGSGRQYSLKISSLHPDDVATYYCQNVLSTPYTFGGGTKLEIK
B4: 3H6 scFv displayed on phage (scFv)
scFv: QVQLQQSGAELVKPGASVKMSCKASGYTFSFYNIHWVRQTPGQGLEWIGLIYPDNGDTSYNQKFKAKATLTADKSSSTAYMQLSSLTSEDSAVYYCARGGFDYWGQGTTLTVSSGGGGSGGGGSGGGGSDIQMTQSPASLSASVGETVTITCRASENIYSYLAWYQQKQGKSPQLLVYNAKTLAEGVPSRFSGSGSGTQFSLKINSLQPEDFGSYYCQHHYGTPYTFGGGTKLEMK
B5: 3E2 scFv displayed on phage (scFv)
scFv: EIQLQQSGAELVKPGASVKMSCKASGYTFSFYNMHWVKRTPGQGLEWIGLIYPDNGDTSYNQKFKGKATLTADTSSSTAYMQLSSLTSEDSAVYYCARGGLDYWGQGTSLTVSSGGGGSGGGGSGGGGSNIVMTQSQKFMSTSVGDRVSVTCKASQNVGTNVAWYQQKPGQSPKALIYSASYRYTGVPDRFTGSGSGTDFTFTISSVQAEDLAVYYCQQHYSTPYTFGGGTKLEIK
B6: 3D7 scFv displayed on phage (scFv)
scFv: QVQLQQSGAELVKPGASVKMSCKASGYTFSFYNMHWVKRTPGRGLEWIGLIYPDNGDTSYNQKFKGKATLTADTSSSTAYMQLSSLTSEDSAVYYCARGGLDYWGQGTSLTVSSGGGGSGGGGSGGGGSEIVLTQSPASLAVSLGQRATISCKASQSVDYDGDSYMNWYQQKPGQPPKLLIYGISNRFSGVPDRFSGSGSGTDFTLKISTIKPEDLGMYYCLQGTHQPYTFGGGTKLEIK
B7: 3F5 scFv displayed on phage (scFv)
scFv: EIQLQQSGAELVKPGASVKMSCKASGYTFRYYNMHWVKRTPGQGLEWIGLIYPDNGDTSYNQKFKGKATLTADTSSSTAYMQLSSLTSEDSAVYYCARGGLDYWGQGTTLTVSSGGGGSGGGGSGGGGSDIVLTQSPASLSASVGETVTITCGASENIYGALNWYQRKQGKSPQLLIYGATNLADGMSSRFSGSGSGRQYSLKISSLHPDDVATYYCQNVLSTPYTFGGGTKLEIK
B8: 3F11 scFv displayed on phage (scFv)
scFv: QVQLQQSGAELVKPGASVKMSCKASGYTFAPYNIHWVRQTPGQGLEWIGLIYPDNGDTSYNQKFKAKATLTADKSSSTAYMQLSSLTSEDSAVYYCARGGFDYWGQGTSLTVSSGGGGSGGGGSGGGGSDIVMTQSQKFMSTSVGDRVSVTCKASQNVGTNVAWYQQKPGQSPKALIYSASYRYSGVPDRFTGSGSGTDFTLTISNVQSEDLAEYFCQQHYSTPFTFGSGTKLEIK
B9: 2B1 scFv displayed on phage (scFv)
scFv: EVQLQQSGAELVKPGASVKMSCKASGYTFASYNLHWVKQTPGQGLEWIGLIYPENGDTSYNQKFKGKATLTADKSSSTAYIQLSSLTSEDSAVYFCARGGFDYWGQGTSLTVSSGGGGSGGGGSGGGGSDIQMIQSPASLSVSVGETVTITCRASENIYSNLAWYQQKQGKSPQLLVYNAKTLADGVPSRFSGSGSGTQYSLKINSLQPEDFGSYYCQHFWSTPYTFGGGTKLEIK
B10: 3E1 scFv displayed on phage (scFv)
scFv: QVQLQQPGAEVVKPGASVKMSCKASGYTFTDYYIHWVKQTPGQGLEWIGAIYPDNGDTSYNQKFKVKATLTADKSSSTAYMQLSSLTSEDSAVYYCARAFTYWGQGTLVTVSAGGGGSGGGGSGGGGSDILITQSPASLSASVGETVTITCGASENIYGALNWYQRKQGKSPQLLIYGATNLADGMSSRFSGSGSGRQYSLKISSLHPDDVATYYCQNVLSTPYTFGGGTKLEIK
B11: 1B8 scFv displayed on phage (scFv)
scFv: QIQLQQSGAELVKPGASVKMSCKASGYTFASYNLHWVKQTPGQGLEWIGLIYPENGDTSYNQKFKGKATLTADTSSTTAYIQLSSLTSEDSAVYFCARGGFDYWGQGTSLTVSSGGGGSGGGGSGGGGSDIKMTQSPASLSASVGETVTITCGASENIYGALNWYQRKQGKSPQLLIYGATNLADGMSSRFSGSGSGRQYSLKISSLHPDDVATYYCQNVLSTPYTFGGGTKLEIK
B12: 1A3 scFv displayed on phage (scFv)
scFv: QVQLQQPGAELVKPGASVKMSCKASGYTFASYNLHWVKQTPGQGLEWIGLIYPENGDTSYNQKFKGKATLTADKSSSTAYIQLSSLTSEDSAVYFCARGGFDYWGQGTTLTVSQGGGGSGGGGSGGGGSDIQMTQSPASLSASVGETVTITCGASENIYGALNWYQRKQGKSPQLLIYGATNLADGMSSRFSGSGSGRQYSLKISSLHPDDVATYYCQNVLSTPYTFGGGTKLEIK
B13: 1G6 scFv displayed on phage (scFv)
scFv: EIQLQQSGAELVKPGASVKMSCKASGYTFRYYNMHWVKRTPGQGLEWIGLIYPDNGDTSYNQKFKGKATLTADTSSSTAYMQLSSLTSEDSAVYYCARGGLDYWGQGTSLTVSSGGGGSGGGGSGGGGSNIVMTQSHKFMSTSVGDRVSITCKASQDVNTDVAWYQQKPGQSPKLLIYSASYRYTGVPTRFTGSGSGTDFTFTISGVQAEDLADYYCQQHYNTPYTFGGGTKLELK
B14: 3E7 scFv displayed on phage (scFv)
scFv: QVQLQQSGAELVKPGASVKMSCKASGYTFTIYNIHWVRQTPGQGLEWIGLIYPDNGDTSYNQKFKAKATLTADKSSSTAYMQLSSLTSEDSAVYYCARGGFDYWGQGTTLTVSSGGGGSGGGGSGGGGSNIVMTQSQKFMSTSVGDRVSVTCKASQNVGTNVAWYQQKPGQSPKALIYSASYRYSGVPDRFTGSGSGTDFTLTISGVQAEDLADYYCQQHYNTPYTFGGGTKLEIK

These binders were tested against recombinant mouse FGFR2b (mouse) (UniProt P21803) (assay: BLI, antibody on AHC2 sensor).
Chain of recombinant mouse FGFR2b (mouse) (P21803 22-377): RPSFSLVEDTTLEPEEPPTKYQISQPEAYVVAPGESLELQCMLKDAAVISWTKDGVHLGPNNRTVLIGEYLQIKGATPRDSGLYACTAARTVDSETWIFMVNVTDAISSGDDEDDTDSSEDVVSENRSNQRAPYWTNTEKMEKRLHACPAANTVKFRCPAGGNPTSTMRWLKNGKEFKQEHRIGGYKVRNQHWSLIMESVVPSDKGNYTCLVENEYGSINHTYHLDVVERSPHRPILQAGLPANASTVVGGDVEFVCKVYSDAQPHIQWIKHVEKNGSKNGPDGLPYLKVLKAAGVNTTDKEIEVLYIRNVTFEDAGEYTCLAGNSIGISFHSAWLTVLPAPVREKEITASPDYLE
B1 showed a Kd of 7.17 nM, a koff of 0.000306 s⁻¹ and a kon of 42700 M⁻¹ s⁻¹.

What follows are binders tested against extracellular domain of the FGFR2b protein (NP_075259.4) (UniProt P21802) (assay: phage ELISA).
Chain of extracellular domain of the FGFR2b protein (NP_075259.4) (P21802 other isoform, or with tags, fused parts or gaps): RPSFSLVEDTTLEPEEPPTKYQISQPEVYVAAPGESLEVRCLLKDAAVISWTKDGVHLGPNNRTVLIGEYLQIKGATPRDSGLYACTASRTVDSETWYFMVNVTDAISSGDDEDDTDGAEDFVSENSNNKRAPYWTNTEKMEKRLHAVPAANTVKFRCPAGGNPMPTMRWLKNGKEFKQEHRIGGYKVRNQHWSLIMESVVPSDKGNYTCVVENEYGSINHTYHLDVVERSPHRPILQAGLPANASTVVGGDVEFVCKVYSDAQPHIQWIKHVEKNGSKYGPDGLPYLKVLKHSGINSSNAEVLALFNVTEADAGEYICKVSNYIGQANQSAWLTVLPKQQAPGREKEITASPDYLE
With B2 the OD (450 nm) value was 2.14.
With B3 the OD (450 nm) value was 2.28.
B4 gave an OD (450 nm) value of 2.29.
With B5 the OD (450 nm) value was 1.87.
B6 showed an OD (450 nm) value of 2.2.
With B7 the OD (450 nm) value was 1.94.
B8 was tested, and the OD (450 nm) value was 2.
With B9 the OD (450 nm) value was 2.33.
B10 was tested, and the OD (450 nm) value was 2.17.
In the case of B11, the OD (450 nm) value is reported as 2.65.
B12 was tested, and the OD (450 nm) value was 2.67.
Binder B13 has an OD (450 nm) value of 2.44.
In the case of B14, the OD (450 nm) value is reported as 1.88.
